Patent US20250188136A1, “AV3 MUTANT POLYPEPTIDES FOR PEST CONTROL” (Vestaron Corporation, priority 2021, published 2025)
Several values for one entry are separate records, joined by “and”; a condition that tells them apart may be missing. Equal entries are not always repeated. Entries after “also recorded” stand apart in the source; their conditions may differ. Ends that are not written are not given here.

Key:
Spodoptera frugiperda = assay: Lepidoptera injection assay, fall armyworm (FAW); assay type: in vivo; conditions: third instar larva, 2 μL injection, scored at 24-hours post-injection
Procedure: (§1) An injection assay was performed on Helicoverpa zea (corn earworm or “CEW”) and Spodoptera frugiperda (fall armyworm or “FAW”). Injections comprised a given Av3b mutant peptide combined with water to arrive at the planned dose. The Av3b mutants included Av3bM24; Av3bM165; Av3bM103; and Av3bM170. Av3b was used as a control.
(§2) Insects were reared on an artificial diet prepared from General Purpose Lepidoptera diet (Frontier Scientific, Newark, DE 19713, product No. F9772) according to the manufacturer's instructions. To perform the insect injection bioassay, 5 mL of hot diet was dispensed into the well of a rearing tray (Bio-Service Inc., Bio-RT-32), with 8 wells per injection treatment. The hot diet was then allowed to cool and solidify. Next, third instar larva were incubated on ice in order to immobilize them. Injections were prepared on a hand-microapplicator with injection solution (>100 μL) in 1-cc all-glass syringe having a 30 gauge straight needle. Air bubbles were removed from the syringe, and the syringe was set it up on the microapplicator. Injection volume was adjusted in the microapplicator at 2 μL.
(§3) To inject the larva, the insects were picked up and positioned close to the injection needle. The needle was allowed to penetrate the cuticle of the third pro-leg of the larva. The injection knob of the microapplicator was then rotated to inject a 2 μL solution into hemolymph from the third pro-leg. After injection the larva maintained on the needle for a few seconds to make sure the injected solution was absorbed. Then, the larva were gently removed from the needle and placed into the wells of prepared tray, along with 5 mL of solidified diet per well. Finally, the tray was sealed with vent covers.
(§4) Injected larva were incubated at 28° C. in an insect incubator, and scored at 24-hours post-injection based on their condition. Insect conditions were categorized as follows: alive (walking, eating, normal behavior); affected (showing toxic symptoms, such as tremors, writhing, unbalanced gait, or a combination thereof), knockdown (paralyzed albeit able to move with gentle poke); and dead (unmoving, discoloration, or a combination thereof).

Helicoverpa zea = assay: Lepidoptera injection assay, corn earworm (CEW); assay type: in vivo; conditions: for KD50 CEW: third instar larva, 2 μL injection, scored at 24-hours post-injection
Procedure: as §1, §2, §3, §4

[1] = Thermo-stability at 54° C. in pH 4.0 solution; assay type: physicochemical; conditions: for peptide change on day 14: pH 4.0, 54° C., HPLC peak area, + mass increase, − mass loss; for thermo-stability at 54° C.: pH 4.0 solution, up to 14 days
Procedure: A thermo-stability study was performed for Av3b, Av3bM24, Av3bM165, Av3bM103, and Av3bM170 in a pH 4.0 solution at 54° C. for 0, 3, 7, 10, 12, and 14 days, with a caffeine internal control to cancel variation from evaporation. Samples of 1 mL were prepared in 1.5 mL microtube with sodium acetate buffer (NaOAc) at pH 4.0, containing 0.1 μg/μL of peptide, and 0.025 μg/μL of caffeine. The samples were incubated at 54° C. in a dry mixer. At 0, 3, 7, 10, 12, and 14 days, 20 μL of each sample was analyzed via analytic rpHPLC system to evaluate peptide loss. Each sample contained a fixed amount caffeine, which was used to compensate the peptide HPLC UV absorbance peak change due to volume change by evaporation. FIG. 68.

[2] = Proteolytic resistance of Av3b mutants during production-strain fermentation (rpHPLC); assay type: physicochemical; conditions: for Degradation?: mutant strain fermentation at pH 6.5, 140 hours, rpHPLC; for degradation product during fermentation (HPLC): production strain fermentation at pH 6.5, rpHPLC
Procedure: The mutants in the table below were evaluated for stability in fermentation beer. Fermentation conditions and HPLC analysis were performed as described above. The mutant production strains were generated using YCT306 K. lactis strain. The production of mutants was performed as described in Example 2; fermentation conditions were performed using the same fermentation process described above regarding the Av3b production strain, with pH control at pH 6.5. […] To identify the mutant with proteolytic resistance, the mutant strains were grown under the same fermentation conditions as Av3b, and samples were taken throughout the fermentation process. The samples taken at 140 hour of fermentation process were analyzed in rpHPLC.

[3] = Circular dichroism assay, melting temperature; assay type: physicochemical; conditions: 10 mM Na3PO4 solution, pH 5.9; 20° C. to 98° C.
Procedure: A JASCO J-1500 CD spectrometer (JASCO, 28600 Mary's Court, Easton, MD 21601 USA) was used to measure the CD spectrum and the secondary structure information of the Av3bM24, Av3bM165, Av3bM103, and Av3bM170 peptides (with Av3b as a comparator). The peptides were prepared in 10 mM Na3PO4 solution, pH 5.9, and loaded into the cuvette for CD spectrum measurement. Measurements were processed with a light wavelength scan ranging from 180 nm to 250 nm, with a 1 nm interval; the temperature graduate changed from 20° C. to 98° C., with 2° C. interval.

[4] = DASbox small-scale fermentation, degradation by HPLC and LC/MS; assay type: physicochemical; conditions: DASbox fed batch fermentation runs
Procedure: DASbox® is a parallel bioreactor system (Eppendorf, 175 Freshwater Blvd, Enfield, CT 06082, USA). The DASbox system used here contains 8 fermentation vessels with 250 mL volume capacity, allowing 8 small scale fermentation runs simultaneously. The DASbox fermentation runs were performed according to the manufacturer's instructions, and using the fermentation conditions described herein.
The screening of the Av3b mutants was conducted using a fed batch process in aerobic bioreactor. Reactors were initially filled to ˜45% capacity with a rich culture media containing 5-20 g/L of a carbon source such as glucose, sorbitol, or lactose, 5-20 g/L phosphoric acid, 0.1-1.5 g/L Calcium sulfate, 5-15 g/L Potassium sulfate, 0.5-10 g/L Magnesium sulfate heptahydrate, 1-5 g/L potassium hydroxide, and 10-60 g/L of corn steep liquor. The temperature of the reactor was maintained between 25-35° C. for the duration of the fermentation. The pH was held constant between 4-5.5 with the addition of 15% ammonium hydroxide. Dissolved oxygen was held constant by sparging air between 0.5-1.5 volume/volume/min and by increasing agitation to maintain a set point of 10-30%.
Inoculation of the reactor was from an overnight seed culture containing 5-40 g/L of a carbon source such as glucose, sorbitol, or lactose, and 5-40 g/L of corn steep liquor. Inoculation percentage ranged from 5-20% of initial fill volume. Once inoculated, the reactor was fed with a 70% solution of the selected carbon source until the reactor was filled and/or desired supernatant peptide concentration was achieved, approximately 96-140 hours and 0.8-1.2 g/L, respectively.

[5] = Stability of purified peptide spiked into Av3b fermentation beer (rpHPLC); assay type: physicochemical; conditions: for peptide remaining: fermentation beer pH 6.5, room temperature, 248 hours, HPLC peak area relative to starting amount
Procedure: To determine the stability of the new mutants, Av3bM19, Av3bM23, Av3bM24, Av3bM25, Av3bM27, and Av3bM28 were purified and incubated in Av3b fermentation beer. The mutants were purified by cation-exchange chromatography using a GE SP-Sephadex C-25 column. The column was first calibrated with 30 mM sodium citrate buffer at pH 3.0. Then, the culture supernatant containing the secreted mutant peptide was loaded into the column to let the mutant peptide bind to the resin. The column was then washed with 30 mM sodium citrate buffer, pH 3.0, followed by washing with 30 mM sodium acetate, pH 4.0. Next, the bound mutant peptide was eluted by 1 M or 2 M NaCl with 30 mM sodium acetate, pH 4.0. The elution was then concentrated and buffer-exchanged to 30 mM sodium acetate, pH 4.0 using a 1 kD cutoff spin concentrator.
After purification, each of the mutants, Av3bM19, Av3bM23, Av3bM24, Av3bM25, Av3bM27, and Av3bM28, were evaluated for stability by spiking them into Av3b strain fermentation beer at pH 6.5. As a negative control, Av3b was evaluated in a pH 4.0 buffer. As a positive control, purified Av3b was evaluated by spiking into the same Av3b fermentation beer at pH 6.5. All stability experiments were performed at room temperature. […] The amount of peptide remaining relative to the beginning was determined by normalizing the peak area at different time to the one at 0 hour for each treatment. The degradation trend is visualized by the bar graph of the relative remaining peptide amount trend.

houseflies = assay: Housefly injection assay (knock-down); assay type: in vivo, Musca domestica
Procedure: An exemplary housefly injection bioassay is as follows: conditioned media is serially diluted to generate full dose-response curves from the housefly injection bioassay. Before injection, adult houseflies (Musca domestica) are immobilized with CO2, and 12-18 mg houseflies are selected for injection. A microapplicator, loaded with a 1 cc syringe and 30-gauge needle, is used to inject 0.5 μL per fly, doses of serially diluted conditioned media samples into houseflies through the body wall of the dorsal thorax. The injected houseflies are placed into closed containers with moist filter paper and breathing holes on the lids, and they are examined by knock-down ratio or by mortality scoring at 24 hours post-injection. Normalized yields are calculated. Peptide yield means the peptide concentration in the conditioned media in units of mg/L. However, peptide yields are not always sufficient to accurately compare the strain production rate. […] A culture with a high cell density may produce a higher concentration of the peptide in the media, even though the peptide production rate of the strain is lower than another strain which has a higher production rate. Accordingly, the term “normalized yield” is created by dividing the peptide yield with the cell density in the corresponding culture and this allows a better comparison of the peptide production rate between strains. The cell density is represented by the light absorbance at 600 nm with a unit of “A” (Absorbance unit).
A housefly injection assay was performed to determine the activity of the new mutants. Adult houseflies were immobilized with CO2 for 10 minutes, and then transferred to a CO2 pan to keep immobilized. Flies with weight between 12-20 mg were picked for injection. The new mutants and Av3b control were diluted in water to proper doses for injection. Next, a 0.5 μL peptide solution was injected into each housefly at the dorsal thorax using a hand-microapplicator with 1 cc all-glass syringe with 30 gauge straight needle. The injected flies were then transferred to a 2 oz. transparent portion container with a wet #4 filter paper. Fly knock-down was assessed at 5-hours post-injection. The activity of a given new mutant was then normalized to the activity of the Av3b production strain (control), using the fly knock-down score at 5 hours.

[6] = Av3b production fermentation beer pH 6.5, room temperature (Example 11, FIG. 37)

| Sequence | KD50 FAW (Spodoptera frugiperda) | knock-down effects compared to Av3b (Helicoverpa zea; CEW and FAW injection, KD50) | KD50 CEW (Helicoverpa zea) | peptide change on day 14 [1] | time stable in solution at 54° C. ([1]; pH 4 NaOAc buffer, 54° C.) [days] | thermo-stability at 54° C. [1] | Degradation? [2] | degradation product during fermentation (HPLC) [2] | CD Melting temperature [3] [°C] | degradation detected via HPLC and LC/MS [4] | half-degradation time [5, 6] | half-degradation time ([5]; Av3b production fermentation beer pH 6.5, room temperature (Example 12, FIG. 39)) | peptide remaining [5] [%] | stability of peptide in pH 4 buffer (negative control) ([5]; pH 4 buffer, room temperature) | resistance to fermentation beer protease cleavage compared to Av3b ([5]; spiked into Av3b fermentation beer pH 6.5, room temperature) | housefly knock-down / insecticidal activity relative to Av3b (houseflies; knock-down at 5 hours post-injection) | Activity (houseflies; knock-down at 5 hours post-injection normalized to Av3b, Yes = insecticidal activity maintained) |
| --- | --- | --- | --- | --- | --- | --- | --- | --- | --- | --- | --- | --- | --- | --- | --- | --- | --- |
| KSCCPCYWGGCPWGQNCYPEGCSGPG (ends and bridges not checked; cysteine pairing not given here) [Av3bM103] | 879 pmol/g | comparable knock-down effects to Av3b | 518 ± 390 (N = 2) pmol/g | −64.1% | 7 | not thermo-stable | No | did not show any degradation product; also recorded: prevent degradation | 82 | degradation was not detected |  |  |  |  |  |  |  |
| KSCCPCYWGGCPWGQNCYPEGCGGPG [Av3bM170] | 495±148 pmol/g and 495 ± 148 (N = 2) pmol/g |  | 104 pmol/g | +4.6% |  | thermo-stable | No | did not show any degradation product | 70 | degradation was not detected |  |  |  |  |  |  |  |
| KSCCPCYWGGCPWGQNCYPEGCSGPK [Av3b, reference compound] | 883 ± 25 (N = 2) pmol/g |  | 367 ± 166 (N = 6) pmol/g | +8.3% |  | thermo-stable |  | showed degradation during fermentation | 69.3 | degradation was detected | 46 h and 46.34 h | 56 h and 56.087 h | 3.8 | no loss of the peptide; also recorded: stable in pH 4 buffer |  |  |  |
| KSCCPCYWGGCPWGQDCYPDGCDGPK (Av3bM19; VARIANT (1)..(26) Recombinant variant of Anemonia viridis Av3 peptide) |  |  |  |  |  |  |  |  |  |  | 666 h |  | 95 |  | greater resistance to yeast fermentation beer protease cleavage; also recorded: improved resistance to fermentation beer cleavage; also recorded: resist the degradation in Av3b fermentation beer | without a concomitant reduction in housefly knock-down activity; also recorded: insecticidal activity | Yes |
